Measured values reported in the supplement of paper PMC11865577.

Key:
Assay in all cases: pull-down binding Z-score (relative to library population); higher = stronger binding
[1] = tested on: TO-N3-2 (biotin conjugate); details: RNA library: Library-2
Method in brief: (§1)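 Biotin-conjugated small molecule (100 pmol) on streptavidin beads was incubated with 1 μg of heat-folded Cy5- or Cy3-end-labelled RNA library in phosphate/NaCl/KCl buffer at 25 °C for 60 min. Following three washes, RNA was eluted with hot SDS and hybridised at 55.5 °C for 20 h to a DNA barcode microarray. The binding value is a Z-score computed from the library mean and standard deviation, after subtraction of beads without compound and averaging of barcoded replicate probes with the highest and lowest excluded.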

[2] = tested on: TO-3-N3-2 (biotin conjugate); details: RNA library: Library-2
Method in brief: as §1

[3] = tested on: TO-3-N3 (biotin conjugate); details: RNA library: Library-2
Method in brief: as §1

TO-N3 (biotin conjugate) = details: RNA library: Library-2
Method in brief: as §1

[4] = tested on: G-clamp-N3 (biotin conjugate); details: RNA library: Library-1 (pre-miRNA loops + repeats)
Method in brief: as §1

| Sequence | pull-down binding Z-score [1] | pull-down binding Z-score [2] | pull-down binding Z-score [3] | pull-down binding Z-score (TO-N3 (biotin conjugate)) | pull-down binding Z-score [4] |
| --- | --- | --- | --- | --- | --- |
| UCUUCCCGGAGUCGGGAAAA [hsa-mir-320a] | -0.901 | -0.307 | -0.0669 | -0.187 | 1.85 |
| GCCUUGUUGCAUAUGGAUCAAGC [hsa-mir-103a-1] | 0.388 | -0.376 | -0.346 | -0.178 | 0.266 |
| AAGUUCCCUCUGGCUGGAAC [hsa-mir-1249] | 0.112 | -0.021 | 0.574 | 0.559 | -0.433 |
| GCUUGCUGUACAUAACUCAAUAGCCGGAAGC [hsa-mir-129-2] | 0.327 | -0.316 | -0.0763 | -0.0532 | -0.369 |
| GUUAGACCUGGCCCUCUGUCUAAU [hsa-mir-429] | 0.3 | -0.136 | 0.355 | 0.564 | -0.787 |
| CAGGCUGCUAAACAACAGAACGAGCACUG [hsa-mir-378f] | 0.421 | -0.122 | -0.22 | -0.0846 | 0.125 |
| AUGUGAUUGCUGUCCCAAACUCAUGU [hsa-mir-135b] | -0.0979 | 0.00564 | -0.305 | -0.126 | -0.794 |
| GCUGGGGGUAAAUGACUUGCACAUGAACACAAC [hsa-mir-708] | 0.578 | 0.191 | -0.0277 | 0.304 | -0.951 |
| ACUGAACCAGCUUCAAACAAGUUCACU [hsa-mir-653] | -0.00579 | 0.0338 | -0.0896 | -0.121 | -0.145 |
| CAUCAUUUGCACUACUGAUACUUGGGGUCAGAUAAUUGUUUGUGGUG [hsa-mir-4447] | -0.616 | -0.334 | -0.801 | -0.914 | 0.115 |
| UCUGUUGUCUGAAAGAAAACA [hsa-mir-518b_518c] | 0.0545 | 0.0546 | -0.441 | -0.285 | -0.569 |
| UGUUUCUUUAUUGAGGACGAAACA [hsa-mir-329-2] | -0.89 | -0.343 | -0.144 | -0.5 | 0.973 |
| UUUGCUAUUACUUUUAAUGGUAAA [hsa-mir-548aj-2] | -1.19 | -0.502 | -0.666 | -0.932 | 1.61 |
| ACUACUAUAGGCCGCUGGGAAGCAGU [hsa-mir-130b] | 0.667 | 0.542 | 1.04 | 1.13 | 0.987 |
| CAGUGAACUAUCAUUGUGCCACUG [hsa-mir-1254-1] | -0.0953 | -0.125 | 0.06 | 0.135 | 0.978 |
| GGGAGGUAUGAUAUCGUGGUUCCU [hsa-mir-3689e] | 1.03 | 0.567 | 0.555 | 0.8 | -0.485 |
| UCCAGAGGCAUCCCUAACCCAGAAUCUUUUGACUGUCCUCUGGA [hsa-mir-4306] | -0.281 | -0.358 | -0.198 | -0.253 | -0.668 |
| UGCAAAUGCAAAGUUGGCUUUUGCA [hsa-mir-3680-2_3680-1] | -0.878 | -0.253 | -0.669 | -0.954 | 1.8 |
| ACAGCAGUCUUACUGAAGGUUUCCUGGAAACCACGCACAUGCUGU [hsa-mir-744] | -0.5 | -0.233 | -0.304 | -0.165 | -0.613 |

| Sequence | pull-down binding Z-score [1] | pull-down binding Z-score [2] | pull-down binding Z-score [3] | pull-down binding Z-score (TO-N3 (biotin conjugate)) | pull-down binding Z-score [4] |
| --- | --- | --- | --- | --- | --- |
| UUUGCCGUCGAAAAUAAUGGCAAA [hsa-mir-548am] | -0.502 | -0.146 | -0.422 | -0.71 | -0.204 |
| CUGAUUCAGAAAGAUCAUCGG [hsa-mir-127] | 0.226 | 0.0704 | -0.444 | -0.346 | -0.634 |
| AAAUAGUUUCUAUCAAAAUAGUUU [hsa-mir-3668] | -1.14 | -0.362 | -0.791 | -0.931 | -1.13 |
| CUGUCUGUUGUAUAAAAGAAAAGAUCG [hsa-mir-517a] | 1 | 0.743 | 0.157 | 0.594 | -0.46 |
| GUCACUGUCUCAAAUCAGUGAC [hsa-mir-549a] | -1.33 | -0.427 | 0.183 | -0.129 | -0.711 |
| AGCACUUUGUGUUUUGUGAAAGAAAGUGCU [hsa-mir-516b-2] | -0.576 | -0.0767 | -0.647 | -0.882 | 2.82 |
| GGUACUUUAUAAUUUCAAAAAGUCCC [hsa-mir-361] | -1.41 | -0.356 | -1.13 | -1.51 | -0.194 |
| GAGGUUGCAGUGAGCCAAGAUCGUG [hsa-mir-4459] | 1.33 | 0.278 | -0.147 | 0.743 | 2.18 |
| CUGAACUGGGCUGGGUUGAGCUGGGCUGGGCUGAGUUGAG [hsa-mir-4538] | 2.71 | 5.75 | 4.18 | 3.25 | 1.51 |
| GUGAGCUGGAAAUGGGGUGCUAC [hsa-mir-598] | 0.962 | 0.651 | 1.46 | 1.5 | 1.37 |
| UGUGCCUGCCUUCGAAGUGCACGGCAGG [hsa-mir-4297] | 0.753 | 0.00697 | 0.105 | 0.519 | -0.529 |
| CCUGCAGGUGAGAGCGGGAACACCUGCAU [hsa-mir-7112] | 1.03 | 0.104 | -0.176 | 0.311 | 0.953 |
| CACUAAUGUGAUUAAUGUUGUUGUG [hsa-mir-3657] | -0.402 | -0.0793 | -0.405 | -0.611 | -1.39 |
| CCUGUAUGUCUCCCCGCAGCACCGUCAUCGU [hsa-mir-6774] | 0.832 | 0.182 | 0.498 | 0.785 | -1.39 |
| CCCAAACUUGGAGCACUUGACCUUUGGC [hsa-mir-4687] | 0.804 | 0.268 | 0.611 | 0.815 | -1.02 |
| UGGCGGCGGCGAGGACACCGCCGCU [hsa-mir-4469] | 0.629 | 0.747 | 1.53 | 1.4 | 0.412 |
| UGAGGAGUAGAACACUCCUUA [hsa-mir-491] | -0.939 | -0.448 | -0.282 | -0.649 | 0.0146 |
| GGCUGGGGUCACUGACUCUGCUUCCCCUGCC [hsa-mir-6799] | 0.62 | -0.0439 | -0.14 | -0.0831 | -0.448 |
